Usually stoichiometry N stands for the number of molecules, sites or subunits per partner or assembly.

These results are taken from paper PMC8004701, “An Arabidopsis Oxalyl-CoA Decarboxylase, AtOXC, Is Important for Oxalate Catabolism in Plants” (International Journal of Molecular Sciences, 2021).

This series deals with the molecule itself. In words: SEC; Superdex 200 Increase 10/300 GL, 100 mM sodium phosphate pH 7.5, 100 mM NaCl, 10 mM beta-mercaptoethanol; standards aldolase (158 kDa) and conalbumin (75 kDa); AtOXC eluted at 13.0 mL.

B1: Arabidopsis oxalyl-CoA decarboxylase (AtOXC), His-tagged (enzyme, Arabidopsis thaliana, UniProt Q9LF46 1-572, looked up)
chain: MADKSETTPPSIDGNVLVAKSLSHLGVTHMFGVVGIPVTSLASRAMALGIRFIAFHNEQSAGYAASAYGYLTGKPGILLTVSGPGCVHGLAGLSNAWVNTWPMVMISGSCDQRDVGRGDFQELDQIEAVKAFSKLSEKAKDVREIPDCVSRVLDRAVSGRPGGCYLDIPTDVLRQKISESEADKLVDEVERSRKEEPIRGSLRSEIESAVSLLRKAERPLIVFGKGAAYSRAEDELKKLVEITGIPFLPTPMGKGLLPDTHEFSATAARSLAIGKCDVALVVGARLNWLLHFGESPKWDKDVKFILVDVSEEEIELRKPHLGIVGDAKTVIGLLNREIKDDPFCLGKSNSWVESISKKAKENGEKMEIQLAKDVVPFNFLTPMRIIRDAILAVEGPSPVVVSEGANTMDVGRSVLVQKEPRTRLDAGTWGTMGVGLGYCIAAAVASPDRLVVAVEGDSGFGFSAMEVETLVRYNLAVVIIVFNNGGVYGGDRRGPEEISGPHKEDPAPTSFVPNAGYHKLIEAFGGKGYIVETPDELKSALAESFAARKPAVVNVIIDPFAGAESGRLQHKN
notes: Oxalyl-CoA decarboxylase AtOXC, Arabidopsis thaliana, locus At5g17380; full-length cDNA; monomer about 61.5 kDa; No removal of the tag is reported; also called His-AtOXC; His-tagged AtOXC; source: E. coli BLR (DE3), purified (nickel-nitriloacetic acid agarose, desalted on Sephadex G-25)
For B1, the “stoichiometry N” value was 2.
